Test results: patent US20220332804A1 (CSL INNOVATION, published 2022)

How the values were obtained:
Test in all cases: SPR, KD relative to WT C2;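 also: biacore SPR at 37 °C, anti-C2 mAbs captured via immobilised goat anti-human IgG, C2 alanine or serine surface mutants as analytes, 1:1 model fitted, double-referenced sensograms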
human C2 A717S = target: T1, human C2 A717S (human, UniProt P06681 21-752)
T1 sequence: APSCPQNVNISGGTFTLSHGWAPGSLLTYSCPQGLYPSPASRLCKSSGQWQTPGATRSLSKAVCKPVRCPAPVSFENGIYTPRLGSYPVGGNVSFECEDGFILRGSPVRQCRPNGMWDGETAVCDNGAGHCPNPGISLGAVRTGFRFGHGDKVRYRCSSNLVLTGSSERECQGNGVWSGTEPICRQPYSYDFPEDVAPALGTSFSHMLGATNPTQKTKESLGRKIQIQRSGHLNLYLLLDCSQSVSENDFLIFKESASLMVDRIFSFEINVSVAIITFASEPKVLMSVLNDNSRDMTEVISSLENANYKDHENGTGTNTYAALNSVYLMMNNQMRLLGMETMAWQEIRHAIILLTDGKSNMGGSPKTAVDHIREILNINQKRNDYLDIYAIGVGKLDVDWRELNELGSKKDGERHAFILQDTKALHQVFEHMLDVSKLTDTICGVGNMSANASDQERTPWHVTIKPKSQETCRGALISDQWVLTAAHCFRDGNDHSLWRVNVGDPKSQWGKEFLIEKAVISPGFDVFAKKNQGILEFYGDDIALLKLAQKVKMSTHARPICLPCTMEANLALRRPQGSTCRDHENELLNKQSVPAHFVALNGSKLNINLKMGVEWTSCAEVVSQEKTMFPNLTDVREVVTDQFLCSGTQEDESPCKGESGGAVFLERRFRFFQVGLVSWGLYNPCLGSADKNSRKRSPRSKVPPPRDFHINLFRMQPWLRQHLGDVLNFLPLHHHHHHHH

human C2 S278A = target: T2, human C2 S278A (human, UniProt P06681 21-752)
T2 sequence: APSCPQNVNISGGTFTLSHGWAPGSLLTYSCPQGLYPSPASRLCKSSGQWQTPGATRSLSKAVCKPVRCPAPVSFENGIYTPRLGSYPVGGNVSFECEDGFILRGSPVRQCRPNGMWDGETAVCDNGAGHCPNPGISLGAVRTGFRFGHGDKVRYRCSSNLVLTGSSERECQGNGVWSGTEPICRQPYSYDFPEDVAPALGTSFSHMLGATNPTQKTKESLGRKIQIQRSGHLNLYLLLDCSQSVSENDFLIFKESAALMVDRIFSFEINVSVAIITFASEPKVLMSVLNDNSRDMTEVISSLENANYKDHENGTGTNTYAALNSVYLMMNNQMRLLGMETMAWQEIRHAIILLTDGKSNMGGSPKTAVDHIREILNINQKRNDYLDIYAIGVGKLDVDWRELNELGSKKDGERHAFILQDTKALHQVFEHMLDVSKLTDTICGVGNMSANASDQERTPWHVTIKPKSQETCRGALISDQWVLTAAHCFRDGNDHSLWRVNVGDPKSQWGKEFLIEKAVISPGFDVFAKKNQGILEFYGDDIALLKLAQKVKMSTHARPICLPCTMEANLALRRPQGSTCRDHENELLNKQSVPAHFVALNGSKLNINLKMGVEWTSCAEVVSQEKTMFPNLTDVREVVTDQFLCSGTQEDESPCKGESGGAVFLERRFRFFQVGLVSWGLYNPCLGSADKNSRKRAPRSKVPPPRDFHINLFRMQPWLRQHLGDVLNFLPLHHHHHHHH

human C2 R434A = target: T3, human C2 R434A (human, UniProt P06681 21-752)
T3 sequence: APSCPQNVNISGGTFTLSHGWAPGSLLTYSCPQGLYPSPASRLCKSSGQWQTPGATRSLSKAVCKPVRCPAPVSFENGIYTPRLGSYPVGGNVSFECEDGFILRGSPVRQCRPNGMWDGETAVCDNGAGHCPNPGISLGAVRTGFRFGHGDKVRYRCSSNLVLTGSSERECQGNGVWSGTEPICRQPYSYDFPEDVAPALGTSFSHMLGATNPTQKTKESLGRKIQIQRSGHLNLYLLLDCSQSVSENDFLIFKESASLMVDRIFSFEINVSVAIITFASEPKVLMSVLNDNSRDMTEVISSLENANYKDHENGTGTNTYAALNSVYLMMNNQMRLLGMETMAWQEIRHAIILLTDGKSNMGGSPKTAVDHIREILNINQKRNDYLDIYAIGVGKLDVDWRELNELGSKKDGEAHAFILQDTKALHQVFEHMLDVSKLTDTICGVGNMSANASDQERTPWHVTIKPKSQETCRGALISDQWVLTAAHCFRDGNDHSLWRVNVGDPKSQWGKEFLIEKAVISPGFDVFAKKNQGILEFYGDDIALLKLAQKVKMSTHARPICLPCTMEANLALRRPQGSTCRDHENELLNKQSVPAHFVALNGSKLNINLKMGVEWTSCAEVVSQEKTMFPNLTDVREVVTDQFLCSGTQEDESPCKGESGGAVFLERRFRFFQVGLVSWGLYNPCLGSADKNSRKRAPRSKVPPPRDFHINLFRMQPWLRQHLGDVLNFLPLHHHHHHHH

human C2 D561A = target: T4, human C2 D561A (human, UniProt P06681 21-752)
T4 sequence: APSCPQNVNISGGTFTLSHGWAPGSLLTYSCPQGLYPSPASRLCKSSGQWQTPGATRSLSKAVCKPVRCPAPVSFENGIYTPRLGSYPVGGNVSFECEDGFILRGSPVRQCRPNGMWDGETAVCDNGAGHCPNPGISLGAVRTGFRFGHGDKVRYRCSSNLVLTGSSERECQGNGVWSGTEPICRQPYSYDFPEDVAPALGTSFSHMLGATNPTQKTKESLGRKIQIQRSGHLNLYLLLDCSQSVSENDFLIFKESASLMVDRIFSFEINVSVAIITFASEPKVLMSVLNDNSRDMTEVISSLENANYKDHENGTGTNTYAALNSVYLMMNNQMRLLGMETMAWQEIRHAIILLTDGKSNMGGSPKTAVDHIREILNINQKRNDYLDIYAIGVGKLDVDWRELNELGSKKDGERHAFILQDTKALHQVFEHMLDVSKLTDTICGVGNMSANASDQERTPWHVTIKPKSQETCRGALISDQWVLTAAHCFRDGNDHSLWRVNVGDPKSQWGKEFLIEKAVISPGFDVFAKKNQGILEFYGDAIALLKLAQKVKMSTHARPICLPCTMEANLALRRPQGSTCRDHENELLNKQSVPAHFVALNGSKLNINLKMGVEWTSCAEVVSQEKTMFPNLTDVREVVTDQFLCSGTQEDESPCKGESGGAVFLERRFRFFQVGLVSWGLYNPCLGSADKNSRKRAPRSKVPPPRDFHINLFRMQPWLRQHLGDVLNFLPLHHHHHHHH

B1: RF16-226 (antibody, human IgG4 S228P, lambda)
heavy: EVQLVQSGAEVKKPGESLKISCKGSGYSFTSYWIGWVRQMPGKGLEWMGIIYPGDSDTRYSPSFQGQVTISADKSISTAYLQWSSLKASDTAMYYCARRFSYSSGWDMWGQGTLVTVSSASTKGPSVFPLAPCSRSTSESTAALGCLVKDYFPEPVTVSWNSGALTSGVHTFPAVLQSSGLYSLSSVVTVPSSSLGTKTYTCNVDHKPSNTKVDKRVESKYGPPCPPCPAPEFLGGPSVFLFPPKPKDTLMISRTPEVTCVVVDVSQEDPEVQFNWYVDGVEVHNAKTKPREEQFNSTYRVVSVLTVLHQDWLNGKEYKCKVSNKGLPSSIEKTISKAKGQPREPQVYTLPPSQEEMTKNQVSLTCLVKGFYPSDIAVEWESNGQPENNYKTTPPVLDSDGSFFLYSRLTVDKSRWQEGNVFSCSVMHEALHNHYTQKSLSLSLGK
light: SYELTQPPSVSVSPGQTARITCSGDALTSKYVAWYQQKSGLAPLLVIYEDTRRPSGIPAKFSGSSSGSVATLTISGAHGDDEADYYCYSTDASGHQRVFGGGTKLTVLSQPKAAPSVTLFPPSSEELQANKATLVCLISDFYPGAVTVAWKADGSPVKAGVETTKPSKQSNNKYAASSYLSLTPEQWKSHRSYSCQVTHEGSTVEKTVAPTECS
notes: pH-dependent anti-C2 antibody from a phage display library; also called WT
In the case of B1, the Fold diff (human C2 A717S) is reported as 41 fold, the Fold diff (human C2 S278A) is reported as 1 fold and the Fold diff (human C2 R434A) is reported as 14 fold. The Fold diff (human C2 D561A) was 10 fold.
